T1: FZD4 recombinant extracellular domain, Fc fusion (FZD-Fc) (UniProt Q9ULV1 37-180)
T1 construct: extracellular domain; also called FZD4 ECD; not shown: Fc part of the FZD-Fc protein
T1 sequence (looked up): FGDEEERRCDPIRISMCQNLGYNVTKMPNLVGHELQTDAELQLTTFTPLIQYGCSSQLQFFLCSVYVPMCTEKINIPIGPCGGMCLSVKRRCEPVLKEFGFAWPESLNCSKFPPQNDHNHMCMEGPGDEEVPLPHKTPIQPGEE

B1: FZD4 Agonist ANT21 (bispecific antibody)
heavy 1: EVQLVESGGGLVQPGGSLRLSCAASGFNFSSSSIHWVRQAPGKGLEWVASISSSYGYTYYADSVKGRFTISADTSKNTAYLQMNSLRAEDTAVYYCARGGSGVSHYGSVYYSWWALDYWGQGTLVTVSSGGGGSDIQMTQSPSSLSASVGDRVTITCRASQSVSSAVAWYQQKPGKAPKLLIYSASSLYSGVPSRFSGSRSGTDFTLTISSLQPEDFATYYCQQYWAYYSPITFGQGTKVEIKGGGGSGGGGSEPKTSDKTHTCPPCPAPELLGGPSVFLFPPKPKDTLMISRTPEVTCVVVAVSHEDPEVKFNWYVDGVEVHNAKTKPREEQYGSTYRVVSVLTVLHQDWLNGKEYKCKVSNKALPAPIEKTISKAKGQPREPMVFDLPPSREEMTKNQVSLWCMVKGFYPSDIAVEWESNGQPENNYKTTPPVLDSDGSFFLYSKLTVDKSRWQQGNVFSCSVMHEALHNHYTQKSLSLSPGKGGGSGGGSGGGSGGGSGSTGEVQLVESGGGLVQPGGSLRLSCAASGFTLSSYSMHWVRQAPGKGLEWVAYISSYYGYTYYADSVKGRFTISADTSKNTAYLQMNSLRAEDTAVYYCARPAPGHWGFDYWGQGTLVTVSSASTKGPSVFPLAPSSKSTSGGTAALGCLVKDYFPEPVTVSWNSGALTSGVHTFPAVLQSSGLYSLSSVVTVPSSSLGTQTYICNVNHKPSNTKVDKKVEPKSCDKTHT
heavy 2: EVQLVESGGGLVQPGGSLRLSCAASGFNFSSSSIHWVRQAPGKGLEWVASISSSYGYTYYADSVKGRFTISADTSKNTAYLQMNSLRAEDTAVYYCARSWAMDYWGQGTLVTVSSGGGGSDIQMTQSPSSLSASVGDRVTITCRASQSVSSAVAWYQQKPGKAPKLLIYSASSLYSGVPSRFSGSRSGTDFTLTISSLQPEDFATYYCQQSSYSLITFGQGTKVEIKGGGGSGGGGSEPKSSDKTHTCPPCPAPELLGGPSVFLFPPKPKDTLMISRTPEVTCVVVAVSHEDPEVKFNWYVDGVEVHNAKTKPREEQYGSTYRVVSVLTVLHQDWLNGKEYKCKVSNKALPAPIEKTISKAKGQPREPQVYTLPPIRELMTSNQVSLSCAVKGFYPSDIAVEWESNGQPENNYKTTPPVLDSDGSFFLVSKLTVDKSRWQQGNVFSCSVMHEALHNHYTQKSLSLSPGKGGGSGGGSGGGSGGGSGSTGEVQLVESGGGLVQPGGSLRLSCAASGFTLSSYSMHWVRQAPGKGLEWVAYISSYYGYTYYADSVKGRFTISADTSKNTAYLQMNSLRAEDTAVYYCARPAPGHWGFDYWGQGTLVTVSSASTKGPSVFPLAPSSKSTSGGTAALGCLVKDYFPEPVTVSWNSGALTSGVHTFPAVLQSSGLYSLSSVVTVPSSSLGTQTYICNVNHKPSNTKVDKKVEPKSCDKTHT
light: DIQMTQSPSSLSASVGDRVTITCRASQSVSSAVAWYQQKPGKAPKLLIYSASSLYSGVPSRFSGSRSGTDFTLTISSLQPEDFATYYCQQWYYAPITFGQGTKVEIKRTVAAPSVFIFPPSDEQLKSGTASVVCLLNNFYPREAKVQWKVDNALQSGNSQESVTEQDSKDSTYSLSSTLTLSKADYEKHKVYACEVTHQGLSSPVTKSFNRGEC
notes: Diabody-Fc-Fab format
B2: FZD4 Agonist ANT39 (bispecific antibody, human IgG1, kappa, N297G)
heavy 1: EVQLVESGGGLVQPGGSLRLSCAASGFDFTAYAMHWVRQAPGKGLEWVASIYPSGGYTAYADSVKGRFTISADTSKNTAYLQMNSLRAEDTAVYYCARRSYYFALDYWGQGTLVTVSSGGGGSDIQMTQSPSSLSASVGDRVTITCRASQSVSSAVAWYQQKPGKAPKLLIYSASSLYSGVPSRFSGSRSGTDFTLTISSLQPEDFATYYCQQYWAYYSPITFGQGTKVEIKGGGGSGGGGSEPKTSDKTHTCPPCPAPELLGGPSVFLFPPKPKDTLMISRTPEVTCVVVAVSHEDPEVKFNWYVDGVEVHNAKTKPREEQYGSTYRVVSVLTVLHQDWLNGKEYKCKVSNKALPAPIEKTISKAKGQPREPMVFDLPPSREEMTKNQVSLWCMVKGFYPSDIAVEWESNGQPENNYKTTPPVLDSDGSFFLYSKLTVDKSRWQQGNVFSCSVMHEALHNHYTQKSLSLSPGKGGGSGGGSGGGSGGGSGSTGEVQLVESGGGLVQPGGSLRLSCAASGFTLSSYSMHWVRQAPGKGLEWVAYISSYDSITDYADSVKGRFTISADTSKNTAYLQMNSLRAEDTAVYYCARPAVGHMAFDYWGQGTLVTVSSASTKGPSVFPLAPSSKSTSGGTAALGCLVKDYFPEPVTVSWNSGALTSGVHTFPAVLQSSGLYSLSSVVTVPSSSLGTQTYICNVNHKPSNTKVDKKVEPKSCDKTHT
heavy 2: EVQLVESGGGLVQPGGSLRLSCAASGFDFSSSSIHWVRQAPGKGLEWVASISSSYGYTYYADSVKGRFTISADTSKNTAYLQMNSLRAEDTAVYYCARSWAMDYWGQGTLVTVSSGGGGSDIQMTQSPSSLSASVGDRVTITCRASQSVSSAVAWYQQKPGKAPKLLIYSASDLYSGVPSRFSGSRSGTDFTLTISSLQPEDFATYYCQQYAGAGLITFGQGTKVEIKGGGGSGGGGSEPKSSDKTHTCPPCPAPELLGGPSVFLFPPKPKDTLMISRTPEVTCVVVAVSHEDPEVKFNWYVDGVEVHNAKTKPREEQYGSTYRVVSVLTVLHQDWLNGKEYKCKVSNKALPAPIEKTISKAKGQPREPQVYTLPPIRELMTSNQVSLSCAVKGFYPSDIAVEWESNGQPENNYKTTPPVLDSDGSFFLVSKLTVDKSRWQQGNVFSCSVMHEALHNHYTQKSLSLSPGKGGGSGGGSGGGSGGGSGSTGEVQLVESGGGLVQPGGSLRLSCAASGFTLSSYSMHWVRQAPGKGLEWVAYISSYDSITDYADSVKGRFTISADTSKNTAYLQMNSLRAEDTAVYYCARPAVGHMAFDYWGQGTLVTVSSASTKGPSVFPLAPSSKSTSGGTAALGCLVKDYFPEPVTVSWNSGALTSGVHTFPAVLQSSGLYSLSSVVTVPSSSLGTQTYICNVNHKPSNTKVDKKVEPKSCDKTHT
light: DIQMTQSPSSLSASVGDRVTITCRASQSVSSAVAWYQQKPGKAPKLLIYSASSLYSGVPSRFSGSRSGTDFTLTISSLQPEDFATYYCQQWYNAPITFGQGTKVEIKRTVAAPSVFIFPPSDEQLKSGTASVVCLLNNFYPREAKVQWKVDNALQSGNSQESVTEQDSKDSTYSLSSTLTLSKADYEKHKVYACEVTHQGLSSPVTKSFNRGEC
notes: Diabody-Fc-Fab format, DANG Fc

Molecular target: T1, FZD4 recombinant extracellular domain, …
Test: BLI (Octet), FZD-Fc captured on AHQ sensors, agonist in solution; apparent affinity

Row | Binder | Kd
1 | B1 | 2.2 nM
2 | B2 | 0.3 nM

Reference: patent US20250270332A1 (ANTLERA THERAPEUTICS, published 2025)
